T1: Human recombinant soluble TWEAK (human, UniProt O43508 99-249)
T1 sequence: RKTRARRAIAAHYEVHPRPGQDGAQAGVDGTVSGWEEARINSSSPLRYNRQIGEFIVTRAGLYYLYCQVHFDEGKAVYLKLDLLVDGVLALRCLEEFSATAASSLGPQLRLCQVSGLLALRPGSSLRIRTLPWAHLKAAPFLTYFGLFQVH

T2: Biotinylated human soluble TWEAK (amino acids 99-249 of SEQ ID NO: 60) (human, UniProt O43508 99-249, biotinylated (sites not given))
T2 construct: Immobilised on the streptavidin sensor in the Biacore half-life assay; also called Human TWEAK; soluble human TWEAK
T2 sequence: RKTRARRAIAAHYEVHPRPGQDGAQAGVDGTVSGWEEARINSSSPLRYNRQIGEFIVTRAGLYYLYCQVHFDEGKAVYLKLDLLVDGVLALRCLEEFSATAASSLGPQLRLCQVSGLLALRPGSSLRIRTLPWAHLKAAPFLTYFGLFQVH

T3: human Flag-tagged soluble TWEAK (amino acids 106-249) (human, UniProt O43508 106-249)
T3 construct: N-terminal placement here is only an order of listing; not shown: Flag tag
T3 sequence: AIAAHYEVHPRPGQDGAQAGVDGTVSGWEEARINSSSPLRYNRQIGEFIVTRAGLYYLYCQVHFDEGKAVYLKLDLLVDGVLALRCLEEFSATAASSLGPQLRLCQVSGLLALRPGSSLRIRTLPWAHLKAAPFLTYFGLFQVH

T4: Biotinylated TWEAK (Homo sapiens (Human), UniProt O43508 99-249, Biotinylated for capture on the streptavidin sensor; the site or sites of biotinylation are not stated. The active form is a soluble homotrimer; one protomer is given.)
T4 sequence: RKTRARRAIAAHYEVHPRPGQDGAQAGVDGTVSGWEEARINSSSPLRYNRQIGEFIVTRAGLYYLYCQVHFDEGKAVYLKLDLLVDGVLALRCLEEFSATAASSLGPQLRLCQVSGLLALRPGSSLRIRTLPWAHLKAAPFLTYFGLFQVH


What was measured:
[1] = molecular target: T1, Human recombinant soluble TWEAK; experiment: cell-based or functional assay
[2] = molecular target: T2, Biotinylated human soluble TWEAK (amino …); experiment: Biacore SPR, biotinylated TWEAK on SA sensor, antibody 100 nM as analyte, 25 C; t1/2 = ln(2)/(60 x kd)
Protocol: A Biacore 2000 instrument was used with a Biacore streptavidin coated sensor mounted into the system. The system buffer HBS-ET (10 mM HEPES pH 7.4, 150 mM NaCl, 1 mM EDTA, 0.05% Tween® 20) was used at a flow rate of 100 μl/min. The sample buffer was the system buffer. Biotinylated human soluble TWEAK (amino acids 99-249 of SEQ ID NO: 60) and biotinylated murine soluble TWEAK (amino acids 81-225 of SEQ ID NO: 61) was immobilized on different flow cells on the SA sensor at 150 RU each. The flow cell FC1 was used as a blank reference cell. Each antibody was injected into the system as an analyte at 100 nM at 100 μl/min for 2 min association time. The dissociation of the immune complexes were monitored for 5 min. The sensor surface was washed with HBS-ET for 10 seconds and regenerated using 2×2 minutes injections with 10 mM glycine pH 2.25. This procedure was done at 25° C. The kinetically rate limiting step of the complex dissociation phase in the interval [240 s-300 s] was taken to calculate the dissociation rate kd [1/s] (Biacore Evaluation Software 4.0). According to the equation t1/2 diss=ln(2)/(60×kd), the half-life of the immunocomplexes in minutes was calculated.

[3] = molecular target: T3, human Flag-tagged soluble TWEAK (amino …); experiment: competition ELISA: antibody pre-incubated with human Flag-TWEAK 2.5 ng/ml, binding to coated human Fn14:Fc
Protocol: 96-well Maxisorp® plates (Nunc) were coated with 100 μl 1 μg/ml human Fn14:Fc (extracellular domain of human Fn14 (amino acids 1-75) fused to Fc portion of human IgG1) in PBS per well for 1.5 h at room temperature and blocked with a solution of 5% FBS in PBS for 30 minutes at room temperature under shaking. […] Wells were filled with 100 μl of anti-FLAG-HRP detection antibody, diluted 1:5000 in blocking buffer, and incubated for 1 h at room temperature. After four more wash steps, the signal was developed by addition of 100 μl 3,3,5,5-Tetramethylbenzidine (TMB) solution for approximately ten minutes. The reaction was stopped by adding 100 μl of 1 N HCl, and absorbance measured at 450 nm (reference wavelength 620 nm).

Biotinylated TWEAK [4] = molecular target: T4, Biotinylated TWEAK; experiment: Biacore cross-blocking on immobilised biotinylated TWEAK; binding of antibody 2 after saturation with competitor antibody 1 TW-301chi (row), 100 nM each
Protocol: (§1) Because of the individual biochemical properties of the TWEAK protein another method had to be developed using TWEAK as ligand. Biotinylated TWEAK was immobilized on the streptavidin-coated chip surface and epitope coverage of consecutively injected antibodies (antibody 1) was measured. The aim was to detect the relative binding levels of a secondary antibody (antibody 2) in the presence of an already bound primary antibody. From these relative binding levels a quotient was calculated (Ab2/Ab1, molar ratio given in %, table 7).
(§2) 5 nM of biotinylated TWEAK was immobilized at 20 μl/min for 1 min on a streptavidin coated sensor flow cell. Primary and secondary mAbs were consecutively injected at 10 μl/min for 4 min into the system at 100 nM each until saturation of the respective TWEAK epitopes was achieved. As a reference an SA coated flow cell was used.
(§3) The system was washed with HBS-ET for 20 sec at 30 μl/min followed by two regeneration steps with 1 min at 30 μl/min 6 M GuadHCl and 100 mM HCl. […] The process was repeated by the immobilization of native biotinylated TWEAK protein (feed batch mode) on the same flow cell until the streptavidin sensor surface was completely saturated by biotinylated TWEAK.

Biotinylated TWEAK [5] = molecular target: T4, Biotinylated TWEAK; experiment: Biacore cross-blocking on immobilised biotinylated TWEAK; binding of antibody 2 after saturation with competitor antibody 1 TW-304chi (row), 100 nM each
Protocol: as §1, §2, §3

Biotinylated TWEAK [6] = molecular target: T4, Biotinylated TWEAK; experiment: Biacore cross-blocking on immobilised biotinylated TWEAK; binding of antibody 2 after saturation with competitor antibody 1 TW-305chi (row), 100 nM each
Protocol: as §1, §2, §3

[7] = molecular target: Mouse soluble TWEAK (mouse) (UniProt O54907); experiment: competition ELISA: antibody pre-incubated with mouse soluble TWEAK 4 ng/ml, binding to coated mouse Fn14:Fc

Binder	IL-8 Secretion IC50 [1] [ng/mL]	t/2 diss [2] [min]	IC50 [3] [ng/mL]	MR % (Ab2/Ab1 molar ratio) (Biotinylated TWEAK [4]) [%]	MR % (Ab2/Ab1 molar ratio) (Biotinylated TWEAK [5]) [%]	MR % (Ab2/Ab1 molar ratio) (Biotinylated TWEAK [6]) [%]	IC50 [7] [ng/mL]
TW-301 (antibody, V domains shown, also called Antibody 301; rabbit antibody 301) VH: QSLEESGGGLVKPGASLTLTCTASGFTFNANYWICWVRQAPGKGLEWIACIYGGGNSGAYYASWATGRFTISRTSSTTVTLQMTSLTAADTATYFCARGPISRDLWGPGTLVTVSL VL: DVVMTQTPASVSEPVGGTVTIKCQASQSIYSSLAWYQQKPGQPPKLLIYDAFDLASGVSSRFTGSGSGTQFTLTISDLECADAATYYCQSTDYGNSWDGNPFGGGTEVVVT	128		3.4				4.7
TW-301chi (antibody, human IgG1, kappa, V domains shown, also called chimeric antibody 301) VH: QSLEESGGGLVKPGASLTLTCTASGFTFNANYWICWVRQAPGKGLEWIACIYGGGNSGAYYASWATGRFTISRTSSTTVTLQMTSLTAADTATYFCARGPISRDLWGPGTLVTVSL VL: DVVMTQTPASVSEPVGGTVTIKCQASQSIYSSLAWYQQKPGQPPKLLIYDAFDLASGVSSRFTGSGSGTQFTLTISDLECADAATYYCQSTDYGNSWDGNPFGGGTEVVVTR	121	110	2.8	0	0	0	6.4

Continued, values first:

IL-8 Secretion IC50 [1] [ng/mL]	t/2 diss [2] [min]	IC50 [3] [ng/mL]	MR % (Ab2/Ab1 molar ratio) (Biotinylated TWEAK [4]) [%]	MR % (Ab2/Ab1 molar ratio) (Biotinylated TWEAK [5]) [%]	MR % (Ab2/Ab1 molar ratio) (Biotinylated TWEAK [6]) [%]	IC50 [7] [ng/mL]	Binder
104	147	2.6	9	3	0		TW-305chi (antibody, human IgG1, kappa, V domains shown, also called chimeric antibody 305; Antibody 305 (chimeric)) VH: QEQLVESGGGLVQPGGSLTLSCKASGFDFSTYYMSWVRQAPGKGLEWIGTVYVRQGTTYYASWLNGRFTISSDNAQNTVDLKMNSLTAADTATYFCAKGGYNYDDAFVIWGPGTLVTVSF VL: AIEMTQTPFSVSAAVGGTVTINCQASQNIYSNLAWYQQKPGQPPKLLMYTASYLASGVPSRFKGSGSRTEYTLTISGVQCADAATYYCQTAYYNSRPDTVAFGGGTEVVVKR
122	37	2.6	6	0	1		TW-304chi (antibody, human IgG1, kappa, V domains shown, also called chimeric antibody 304) VH: QSLEESGGDLVKPGASLTLTCKASGFSFSSTYYMCWVRQAPGKGLEWIGCIYVGSSGAPYYASWAKGRFTISKTSSTTVALQMTSLTPADTATYVCTRSVHFGDLWGPGTLVTVSS VL: DVVMTQTPSPVSAAVGGTVTIKCQASQSIGNDLSWYQQKPGQRPKLLIYSVSTLASGVPSRFKGSGSGTEYSLTISDVQCADAATYYCQCIDYGNNYVGNTFGGGTEVVVKR
